Results from patent US20240392003A1 (NUMAB THERAPEUTICS, published 2024).
Where two headings read alike, the source gives them in different places.

Columns and labels:
[1] = target: T1, recombinant human CD3 epsilon extra-cellular domain protein (His-Tag, SinoBiological) (human, UniProt P07766 23-126); experiment: SPR; hCD3ε immobilized, two-state fit
T1 construct: extracellular domain; Bought; also called hCD3ε; human CD3ε; not shown: His tag

[2] = target: T2, human ROR1 expressed on cells (human, UniProt Q01973 30-937); experiment: flow cytometry, JIMT-1 cells (ROR1-positive)
T2 construct: whole, on cells; One molecule for cell-surface ROR1 on all cell lines; the cell line is named under assay; also called hROR1; plasma membrane human ROR1

[3] = target: T2, human ROR1 expressed on cells; experiment: cell-based or functional assay
[4] = target: T3, recombinant human ROR1 protein (Fc-Tag, Acro Biosystems RO1-H5250) (human, UniProt Q01973 30-406); experiment: SPR; hROR1-Fc immobilized (Avidity)
T3 construct: Bought; also called hROR1; recombinant human ROR1 ECD; not shown: Fc tag

[5] = target: T1, recombinant human CD3 epsilon …; experiment: SPR; hCD3ε immobilized, two-state fit (kd1)
Description: (§1) Binding kinetics (including affinity) of the four MATCH4 molecules to recombinant human CD3 epsilon extra-cellular domain protein (hCD3ε; His-Tag, SinoBiological) were determined by SPR analysis on a T200 device (Biacore, Cytiva). Recombinant hCD3ε molecules were covalently immobilized to a carboxymethylated dextran surface (CM5 sensorchip; Biacore, Cytiva) and a titration series of each MATCH4 molecule was injected as analyte. After each analyte injection-cycle, every flow channel on the sensor chip was regenerated (Glycine, pH 2.0 and 3 M MgCl₂), and a new concentration of MATCH4 molecule was injected. […] The apparent dissociation (kd1) and association (kₐ₁) rate constants, the second reaction constants (kₐ₂ and kd2) and the apparent dissociation equilibrium constant (KD) were calculated with the Biacore analysis software (Biacore Evaluation software Version 3.2, Cytiva) using a two-state binding model, and the quality of the fits was monitored based on relative Chi2. The binding level was calculated as the maximum stability binding achieved normalized to the theoretical Rmax.

[6] = target: T1, recombinant human CD3 epsilon …; experiment: SPR; hCD3ε immobilized, two-state fit (Ka1)
Description: as §1

[7] = target: T4, human ROR1 (Peprotech 160-054) (human, UniProt Q01973 30-406); experiment: SPR; MATCH4 captured, hROR1 analyte (Affinity)
T4 construct: Bought, used as analyte; also called hROR1; recombinant human ROR1 protein
Description: Binding affinity without avidity was determined by using a proprietary anti-framework rabbit IgG (rlgG21-57-20-B11) immobilized to a carboxymethylated dextran surface (CM5 sensorchip; Biacore, Cytiva) to capture the MATCH4 molecules on the surface. A titration series of human ROR1 (Peprotech 160-054) molecule was injected as analyte. After each capture-analyte injection cycle, every flow channel on the sensor chip was regenerated (3 M MgCl₂), and a MATCH4 molecule was captured again followed by a different concentration of human ROR1. The binding kinetics to human ROR1 were measured using a multi-cycle kinetic assay, with ten analyte concentrations ranging from 0.088 to 90 nM, 1:2 diluted in running buffer (HEPES buffered saline, 0.05% Tween-20, pH 7.5; Bioconcept).
For both assays, the apparent dissociation (kd) and association (kₐ) rate constants and the apparent dissociation equilibrium constant (KD) were calculated with the Biacore analysis software (Biacore Evaluation software Version 3.2, Cytiva) using a one-to-one Langmuir binding model and quality of the fits was monitored based on Chi2 and U-value, which are measures for the quality of the curve fitting. The binding level was calculated as the maximum stability binding achieved normalized to the theoretical Rmax.

[8] = target: T2, human ROR1 expressed on cells; experiment: cell-based or functional assay; remark: listed apart in the source
[9] = target: T2, human ROR1 expressed on cells; experiment: cell-based or functional assay; remark: listed apart in the source
[10] = target: T2, human ROR1 expressed on cells; experiment: flow cytometry, MDA-MB-231 cells, 1 mg/ml hSA
Description: After incubation at 4° C. for 1 h in presence of 1 mg/ml of human serum albumin (hSA), plates were washed and incubated with specific detection antibodies.
The binding of MATCH4 molecules to plasma membrane-based human ROR1 was assessed by flow cytometry. The calculated EC₅₀, rel.

[11] = target: T2, human ROR1 expressed on cells; experiment: flow cytometry, JIMT-1 cells (ROR1-positive); remark: listed apart in the source
[12] = target: T2, human ROR1 expressed on cells; experiment: flow cytometry, MDA-MB-231 cells, 1 mg/ml hSA; remark: listed apart in the source

B1: PRO2591 (bispecific antibody)
chain 1: AQQLTQSPSSLSASVGDRVTITCQASQNVWNNNYLSWFQQKPGKPPKLLIVTASTLASGVSSRFSGSGSGTDFTLTISSLQPEDFATYYCAGGFSGEIRAFGTGTKVTVLGGGGGSGGGGSGGGGSGGGGSQSQLVESGGGLVQPGGSLRLSCAVSGIDLSRNAMSWVRQAPGKGLEWIGIILTSGSTYYASWAKGRFTISKTSTTLDLQMNSLRAEDTAVYFCVRGIASSSLKSFWGQGTLVTVSSGGGGSGGGGSAFELTQSPSSLSASVGDRVTITCQASESINSRLAWYQQKPGQPPKLLIYDASDLTSGVPSRFSGSGSGTDFTLTISSLQPEDFATYYCQGYGGSSTTTFGCGTKLTVLGGGSGGSDIQMTQSPSSLSASVGDRVTITCQSSQSVFSNNYLAWFQQKPGQSPKRLIYSASTLASGVPSRFSGSGSGTDFTLTISSLQPEDFATYYCLGSYACSSADCYVFGTGTKVTVLG
chain 2: AQQLTQSPSSLSASVGDRVTITCQASQNVWNNNYLSWFQQKPGKPPKLLIVTASTLASGVSSRFSGSGSGTDFTLTISSLQPEDFATYYCAGGFSGEIRAFGTGTKVTVLGGGGGSGGGGSGGGGSGGGGSQSQLVESGGGLVQPGGSLRLSCAVSGIDLSRNAMSWVRQAPGKGLEWIGIILTSGSTYYASWAKGRFTISKTSTTLDLQMNSLRAEDTAVYFCVRGIASSSLKSFWGQGTLVTVSSGGGGSGGGGSEVQLVESGGGLVQPGGSLRLSCAASGFSLSSYDMSWVRQAPGKGLAWIGASYASGPTYYASWAKGRFTISRDNSKNTVYLQMNSLRAEDTATYFCARGGWTGTSHSNIWGQGTLVTVSSGGGSGGGSGGGSGEVQLVESGGGLVQPGGSLRLSCAASGFSLSSYAMNWVRQAPGKCLEWIGHINAGDIAYYATWAKGRFTISRDNSKNTVYLQMNSLRAEDTAVYFCARGAGGFSTGPFKLWGQGTLVTVSS
notes: heterodimeric MATCH4, bivalent for ROR1, monovalent for CD3 and hSA; also called MATCH4 with 55-39-G02-sc03 / 19-04-A10-sc06 / 28-21-D09-sc04 / 55-39-G02-sc03
[1]
  Ka2: 0.0027 s⁻¹
  Kd: 4.7 nM
  Kd2: 0.0024 s⁻¹
[2]
  EC50 (read off the curve): ~0.5 nM
[3]
  Avg. % max. CD8 T cell act. (JIMT-1): 20.3%
  Avg. % max. CD8 T cell act. (MDA-MB-231): 67.5%
  Avg. % max. CD8 T cell act. (SKOV3): 62.7%
  Avg. EC50 (nM) CD8 T cell act. (JIMT-1): 4.6 nM
  Avg. EC50 (nM) CD8 T cell act. (MDA-MB-231): 0.01 nM
  Avg. EC50 (nM) CD8 T cell act. (SKOV3): 0.68 nM
[4]
  Kd: 0.0227 nM
  koff: 4.1e-05 s⁻¹
  kon: 1.81e+06 M⁻¹ s⁻¹
[5]
  koff: 0.00423 s⁻¹
[6]
  kon: 420000 M⁻¹ s⁻¹
[7]
  Kd: 3.2 nM
  koff: 0.00034 s⁻¹
  kon: 110000 M⁻¹ s⁻¹
[8]
  Avg. % max. lysis (JIMT-1): 34.5%
  Avg. % max. lysis (MDA-MB-231): 47.2%
  Avg. % max. lysis (SKOV3): 58.7%
  Avg. EC50 (nM) CD8 T cell act. (MDA-MB-231): 0.01 nM
  Avg. EC50 (nM) CD8 T cell act. (SKOV3): 0.68 nM
  Avg. EC50 (nM) Cytotoxicity (JIMT-1): 2.4 nM
  Avg. EC50 (nM) Cytotoxicity (MDA-MB-231): 0.011 nM
  Avg. EC50 (nM) Cytotoxicity (SKOV3): 3.5 nM
[9]
  Avg. % max. CD4 T cell act. (JIMT-1): 30.5%
  Avg. % max. CD4 T cell act. (MDA-MB-231): 80.3%
  Avg. % max. CD4 T cell act. (SKOV3): 78.7%
  Avg. EC50 (nM) CD4 T cell act. (JIMT-1): 3.9 nM
  Avg. EC50 (nM) CD4 T cell act. (MDA-MB-231): 0.005 nM
  Avg. EC50 (nM) CD4 T cell act. (SKOV3): 0.38 nM
[10]
  EC50: 0.28 nM
  Rel. maximum binding (MFIMATCH4/MFIPRO2213): 2.21
  rel. EC50 (EC50, PRO2213/EC50, MATCH4): 2.45

B2: PRO2589 (bispecific antibody)
chain 1: DVQMTQSPSSLSASVGDRVTITCRASENIYSGLAWYQQKPGKPPKLLIYRASTLASGVSSRFSGSGSGTDFTLTISSLQPEDFATYYCQGGYYSSSSTYIAFGTGTKVTVLGGGGGSGGGGSGGGGSGGGGSQSQVVESGGGLVQPGGSLRLSCAVSGFDLSSYAVSWVRQAPGKGLEWIGIIYPRANTYYASWAKGRFTISKDNSKNTVYLQMNSLRAEDTAVYFCARDRYDSGAYLYTTYFNLWGQGTLVTVSSGGGGSGGGGSAFELTQSPSSLSASVGDRVTITCQASESINSRLAWYQQKPGQPPKLLIYDASDLTSGVPSRFSGSGSGTDFTLTISSLQPEDFATYYCQGYGGSSTTTFGCGTKLTVLGGGSGGSDIQMTQSPSSLSASVGDRVTITCQSSQSVFSNNYLAWFQQKPGQSPKRLIYSASTLASGVPSRFSGSGSGTDFTLTISSLQPEDFATYYCLGSYACSSADCYVFGTGTKVTVLG
chain 2: DVQMTQSPSSLSASVGDRVTITCRASENIYSGLAWYQQKPGKPPKLLIYRASTLASGVSSRFSGSGSGTDFTLTISSLQPEDFATYYCQGGYYSSSSTYIAFGTGTKVTVLGGGGGSGGGGSGGGGSGGGGSQSQVVESGGGLVQPGGSLRLSCAVSGFDLSSYAVSWVRQAPGKGLEWIGIIYPRANTYYASWAKGRFTISKDNSKNTVYLQMNSLRAEDTAVYFCARDRYDSGAYLYTTYFNLWGQGTLVTVSSGGGGSGGGGSEVQLVESGGGLVQPGGSLRLSCAASGFSLSSYDMSWVRQAPGKGLAWIGASYASGPTYYASWAKGRFTISRDNSKNTVYLQMNSLRAEDTATYFCARGGWTGTSHSNIWGQGTLVTVSSGGGSGGGSGGGSGEVQLVESGGGLVQPGGSLRLSCAASGFSLSSYAMNWVRQAPGKCLEWIGHINAGDIAYYATWAKGRFTISRDNSKNTVYLQMNSLRAEDTAVYFCARGAGGFSTGPFKLWGQGTLVTVSS
notes: heterodimeric MATCH4, bivalent for ROR1, monovalent for CD3 and hSA; also called MATCH4 with 55-38-D07-sc02 / 19-04-A10-sc06 / 28-21-D09-sc04 / 55-38-D07-sc02
[1]
  Ka2: 0.0063 s⁻¹
  Kd: 5.9 nM
  Kd2: 0.0042 s⁻¹
[3]
  Avg. % max. CD8 T cell act. (JIMT-1): 23.8%
  Avg. % max. CD8 T cell act. (MDA-MB-231): 68.5%
  Avg. % max. CD8 T cell act. (SKOV3): 66.7%
  Avg. EC50 (nM) CD8 T cell act. (JIMT-1): 0.08 nM
  Avg. EC50 (nM) CD8 T cell act. (MDA-MB-231): 0.012 nM
  Avg. EC50 (nM) CD8 T cell act. (SKOV3): 0.032 nM
[4]
  Kd: 0.093 nM
  koff: 7.02e-05 s⁻¹
  kon: 755000 M⁻¹ s⁻¹
[5]
  koff: 0.0065 s⁻¹
[6]
  kon: 440000 M⁻¹ s⁻¹
[7]
  Kd: 1.2 nM
  koff: 0.00011 s⁻¹
  kon: 94000 M⁻¹ s⁻¹
[8]
  Avg. % max. lysis (JIMT-1): 41%
  Avg. % max. lysis (MDA-MB-231): 56.9%
  Avg. % max. lysis (SKOV3): 54.6%
  Avg. EC50 (nM) CD8 T cell act. (MDA-MB-231): 0.012 nM
  Avg. EC50 (nM) CD8 T cell act. (SKOV3): 0.031 nM
  Avg. EC50 (nM) Cytotoxicity (JIMT-1): 0.1 nM
  Avg. EC50 (nM) Cytotoxicity (MDA-MB-231): 0.015 nM
  Avg. EC50 (nM) Cytotoxicity (SKOV3): 0.043 nM
[9]
  Avg. % max. CD4 T cell act. (JIMT-1): 36.7%
  Avg. % max. CD4 T cell act. (MDA-MB-231): 79%
  Avg. % max. CD4 T cell act. (SKOV3): 80.3%
  Avg. EC50 (nM) CD4 T cell act. (JIMT-1): 0.09 nM
  Avg. EC50 (nM) CD4 T cell act. (MDA-MB-231): 0.006 nM
  Avg. EC50 (nM) CD4 T cell act. (SKOV3): 0.02 nM
[11]
  EC50 (read off the curve): 1 to 2 nM
[10]
  EC50: 1.55 nM
  Rel. maximum binding (MFIMATCH4/MFIPRO2213): 2.67
  rel. EC50 (EC50, PRO2213/EC50, MATCH4): 0.45
[12]
  fold better rel. EC50 than scMATCH3 PRO2507: ~10 fold
